This is an account of results in publication PMC3436176.

Usually Kd stands for the concentration at which binding is half-saturated. Higher therefore signals weaker binding.

This assay addresses III-30A (human). The assay can be described thus: ELISA.

Chain of GPVIex (recombinant extracellular domain of GPVI) (Q9HCN6 21-214): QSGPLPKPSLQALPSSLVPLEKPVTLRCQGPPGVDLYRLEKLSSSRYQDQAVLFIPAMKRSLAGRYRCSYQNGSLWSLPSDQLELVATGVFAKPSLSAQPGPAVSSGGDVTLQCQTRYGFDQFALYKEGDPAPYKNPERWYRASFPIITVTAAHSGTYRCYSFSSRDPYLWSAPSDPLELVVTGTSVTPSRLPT

“GPVIex (recombinant extracellular domain of GPVI) (from UniProt Q9HCN6 21-214) (domain or fragment)” yielded a Kd of 10.2 µM.
